Results reported in patent publication US20200317758A1 (published 2020).

T1: recombinant toxoid variant of the LukAB protein (LukA E323A) with poly-histidine and streptavidin binding … (UniProt Q2FFA2 31-351; P21224 30-338)
T1 chain 1: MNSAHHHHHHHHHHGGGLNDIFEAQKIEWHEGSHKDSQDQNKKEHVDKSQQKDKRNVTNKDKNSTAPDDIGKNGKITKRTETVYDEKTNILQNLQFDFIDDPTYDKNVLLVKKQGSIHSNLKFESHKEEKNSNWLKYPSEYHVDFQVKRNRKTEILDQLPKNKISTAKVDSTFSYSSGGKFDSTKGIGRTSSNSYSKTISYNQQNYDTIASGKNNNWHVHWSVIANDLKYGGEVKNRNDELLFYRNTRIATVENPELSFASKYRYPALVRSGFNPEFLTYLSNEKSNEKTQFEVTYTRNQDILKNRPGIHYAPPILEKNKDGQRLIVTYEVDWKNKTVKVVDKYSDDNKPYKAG
T1 chain 2: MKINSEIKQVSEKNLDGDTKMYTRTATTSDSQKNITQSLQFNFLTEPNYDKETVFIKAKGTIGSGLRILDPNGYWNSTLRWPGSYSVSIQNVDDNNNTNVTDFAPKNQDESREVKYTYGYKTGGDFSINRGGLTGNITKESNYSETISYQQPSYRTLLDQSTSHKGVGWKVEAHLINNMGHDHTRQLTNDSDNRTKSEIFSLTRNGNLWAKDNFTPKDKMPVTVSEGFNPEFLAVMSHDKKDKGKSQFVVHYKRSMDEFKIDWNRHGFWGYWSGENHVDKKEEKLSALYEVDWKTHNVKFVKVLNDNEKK

T2: recombinant derivative of the LukE protein (SEQ ID NO: 826) with amino-terminal poly-histidine affinity tag (UniProt Q2FXB0 24-306)
T2 chain: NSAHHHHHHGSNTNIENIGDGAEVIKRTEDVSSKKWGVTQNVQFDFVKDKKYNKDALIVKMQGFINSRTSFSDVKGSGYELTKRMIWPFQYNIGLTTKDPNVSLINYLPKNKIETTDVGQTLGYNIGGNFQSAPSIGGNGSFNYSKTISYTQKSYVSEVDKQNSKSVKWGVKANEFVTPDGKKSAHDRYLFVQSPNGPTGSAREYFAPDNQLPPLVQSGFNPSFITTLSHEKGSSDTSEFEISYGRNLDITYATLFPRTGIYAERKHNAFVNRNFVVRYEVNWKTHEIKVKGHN

T3: recombinant derivative of the LukD protein (SEQ ID NO: 824) with amino-terminal polyhistidine affinity tag, … (UniProt Q2FXB1 27-327, chemically biotinylated in vitro (sites not given))
T3 chain: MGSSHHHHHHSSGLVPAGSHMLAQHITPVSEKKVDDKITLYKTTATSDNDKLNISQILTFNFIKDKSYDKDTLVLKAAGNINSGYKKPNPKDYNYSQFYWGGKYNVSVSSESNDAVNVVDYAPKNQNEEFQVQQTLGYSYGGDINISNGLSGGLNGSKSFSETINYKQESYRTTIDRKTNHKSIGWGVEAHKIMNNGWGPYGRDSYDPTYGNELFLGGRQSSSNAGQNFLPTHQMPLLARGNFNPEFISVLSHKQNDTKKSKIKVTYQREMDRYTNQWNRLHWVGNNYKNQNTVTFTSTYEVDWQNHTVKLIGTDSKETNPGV

B1: anti-LukAB mAb SM1B111 (antibody, V domains shown)
VH: EVQLQQSGAELVKPGASVKISCKASGYAFSSSWMNWLKQRPGKGLEWIGRIYPGDGDTNYNGKFKGKATLTADKSSSTAYMQLSSLTSEDSAVYFCARYGYDYDGEYYYAMDYWGQGTSVTVSS
VL: DIVMTQSPTTMAASPGERITITCSAHSNLISNYLHWYQQKPGFSPKLLIYRTSNLASGVPARFSGSGSGTSYSLTIGTMEAEDVATYFCQQGSSIPFTFGSGTKLEIKR
B2: anti-LukAB mAb SM1B245 (antibody, V domains shown)
VH: QVQLQQSGAELAKPGASVKMSCKSSGYTFSTYWMHWVKQRPGQGLEWIGYINPNTGYTEYNQKFKDTATLTADKSSSTAYMQLSSLTSEDSAVYYCARGGSKAFPYYAMDYWGQGTSVTVSS
VL: DIVLTQSPASLAVSLGQRATMSCRASESVDGYGNSFLHWYQQKPGQPPKLLIYRASNLESGIPARFSGTGSRTDFTLTITPVEADDVATYYCQQSNGDPFTFGSGTKLEIKR
B3: anti-LukE mAb SM1B318 (antibody, V domains shown)
VH: QVQLQQSGAELMNPGASVKISCKSTGYKFSSYWIEWVKQRPGHGLEWMGEILPGSGSTNHNEKFKGKAIFTADASSNTAYMELSSLTSEDSAVYYCARTISTATDWFAYWGQGTLVTVSA
VL: DVLMTQTPLSLPVSLGDQASISCRSSQTIVYSDGNTYLEWYLQKPGQSPKLLIYKVSNRFSGVPDRVSGSGSGTDFTLKISRVEAEDLGVYYCFQGSHVPYTFGGGTKLEIKR
B4: anti-LukE mAb SM1B332 (antibody, V domains shown)
VH: QVQLKESGPGLVAPSQSLSITCTVSGLSLTSYGLSWVRQPPGKGLEWLGVIWGDGSTNYHSALISRLSISKDNSKSQVFLKLNSLQSDDTATYYCATRGDYGSYAMDYWGQGTSVTVSS
VL: QIVLTQSPAIMSASPGEKVTLTCSASSSVSSSYLFWYQQKPGSSPKLWIYSTSNLASGVPVRFSGSGFGTSYSLTISRMEAEDAASYFCHQWSSYPPTFGAGTKLELKR
B5: anti-LukE mAb SM1B507 (antibody)
heavy: EVQLQQSGAELVKPGASVKMSCKASGYTFTDYYMDWVKQSHGKSFEWIGHVNPYNGDTRYNQKFKGKATLTVDKSSTTAYMELNSLTSEDSAVYYCARGNFFDYWGQGTTLSVSSAKTTPPSVYPLAPGSAAQTNSMVTLGCLVKGYFPEPVTVTWNSGSLSSGVHTFPAVLESDLYTLSSSVTVPSSPRPSETVTCNVAHPASSTKVDKKIVPRDCGCKPCICTVPEVSSVFIFPPKPKDVLTITLTPKVTCVVVDISKDDPEVQFSWFVDDVEVHTAQTQPREEQFNSTFRSVSELPIMHQDWLNGKEFKCRVNSAAFPAPIEKTISKTKGRPKAPQVYTIPPPKEQMAKDKVSLTCMITDFFPEDITVEWQWNGQPAENYKNTQPIMNTNGSYFVYSKLNVQKSNWEAGNTFTCSVLHEGLHNHHTEKSLSHSPGK
light: DIVMTQSPAIMSASPGEKVTIPCSASSSVSYMHWFQQKPGTSPKLWIYSTSNLASGVPGRFSGSGSGTSYSLTISRMEAEDAATYYCQQRSNYPLTFGAGTKLELKRADAAPTVSIFPPSSEQLTSGGASVVCFLNNFYPKDINVKWKIDGSERQNGVLNSWTDQDSKDSTYSMSSTLTLTKDEYERHNSYTCEATHKTSTSPIVKSFNRNEC
B6: antibody SM1B225 (antibody, V domains shown)
VH: EVQLQQSGGGLVKPGGSLKLSCAASGFTFSSYAMSWVRQTPEKRLEWVATITGGGTYTYYLDSVKGRFTISRDNAKTSLYLQMSSLRSEDTAMYYCARHRDGNYGCFDVWGAGTTVTVSS
VL: DIVLTQSPAIMSASLGERVTMTCTASSSVSSSYLHWYQQKPGSSPKLWVYSTSNLASGVPARFSGSGSGSSYSLTISSMEPEDTATYYCHQYHRSPQTFGGGTKLEIKR

Experiments:
[1] = target: T1, recombinant toxoid variant of the LukAB …; assay: BLI; Step E (after SM1B245)
[2] = target: T1, recombinant toxoid variant of the LukAB …; assay: BLI; Step C (first mAb)
[3] = target: T1, recombinant toxoid variant of the LukAB …; assay: BLI; Step E (after SM1B249)
[4] = target: T2, recombinant derivative of the LukE …; assay: BLI; Step E (after SM1B332), left panel
[5] = target: T2, recombinant derivative of the LukE …; assay: BLI; Step C (first mAb), left panel
[6] = target: T2, recombinant derivative of the LukE …; assay: BLI; Step E (after SM1B332), right panel
[7] = target: T2, recombinant derivative of the LukE …; assay: BLI; Step C (first mAb), right panel
[8] = target: T3, recombinant derivative of the LukD …; assay: BLI; Step E (after SM1B221)

Row | Binder | Kd [1] | Kd [4] | Kd [6] | further results
1 | B1 | 4.53 nM | – | – | –
2 | B2 | 11.5 nM | – | – | Kd [2]: 0.656 nM; Kd [3]: 1.31 nM
3 | B3 | – | 5.04 nM | – | –
4 | B4 | – | 4.9 nM | 4.9 nM | Kd [5]: 1.38 nM; Kd [7]: 1.47 nM
5 | B5 | – | – | 3.52 nM | –
6 | B6 | – | – | – | Kd [8]: 4.67 nM
